Test results from publication PMC2836974 (Molecular Biology of the Cell, 2010).

Assays:
[1] = target: T1, C-terminal-truncated Rap1 (amino acids 1-169), GST fusion, loaded with mGppNHp (Dictyostelium discoideum, UniProt P18613 1-169); experiment: guanine nucleotide dissociation inhibition
T1 sequence: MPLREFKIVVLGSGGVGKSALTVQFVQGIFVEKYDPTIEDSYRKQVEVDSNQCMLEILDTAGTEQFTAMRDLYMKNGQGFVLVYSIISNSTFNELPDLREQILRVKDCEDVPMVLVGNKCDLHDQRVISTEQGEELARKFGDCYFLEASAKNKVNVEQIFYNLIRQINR

[2] = target: RasG, GST fusion, loaded with mGppNHp (Dictyostelium discoideum, UniProt P15064 1-189); experiment: guanine nucleotide dissociation inhibition
Sequence of RasG, GST fusion, loaded with mGppNHp (P15064 whole entry, the tested form may be a part): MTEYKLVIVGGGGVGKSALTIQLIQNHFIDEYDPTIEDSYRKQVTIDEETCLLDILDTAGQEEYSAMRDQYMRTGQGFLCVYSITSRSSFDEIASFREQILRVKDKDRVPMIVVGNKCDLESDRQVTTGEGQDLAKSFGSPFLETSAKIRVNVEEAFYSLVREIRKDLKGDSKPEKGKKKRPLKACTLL

B1: PI3K2-RBD (RBD domain of PI3K2, amino acids 757-918) (domain or fragment)
chain: GHIQAELEIFELIGTSFTRVLDQGQEVVSFRRDFAQFRLSNFTSTRNDLSQMIYVSSEPLPLTIPNKITIMVLLPGDGKIIKRVDCCPNSSVGDVKKEIFKKFAMIDRVHTQGKTQDDFVLKVTGFREYILCIHELGNLTSRQRFYPTGSGGDFSLMDYDYI
For B1, the Kd [1] was 40 µM and the Kd [2] was 24 µM.
